Assay [1] deals with Pak1 (UniProt Q13153). Put plainly: competitive phage ELISA IC50 compared with KD (~IC50) of primary-screen monobodies. For orientation: An ELISA detects its analyte on a solid surface through an enzyme-linked reagent.
The target of assay [2] is Pak1 (UniProt Q13153). Description: competitive phage ELISA: biotinylated Pak1 immobilised, varying non-biotinylated Pak1 mixed with phage displaying D3.

B1: Clone D3 (designed binder, not shown: large carriers; small tags and cut ends)
chain: EQKLISEEDLMAVSDVPRKLEVVAATPTSLLISWDAPWKKTRYYRITYGETGGNSPVQEFTVPGSKSTATISGLKPGVDYTITVYAVTASWPWSKPISINYRTSGGGGSGGGGSGGGGSGGGGSGGGGSDYKDDDDKLASAMAVSDVPRKLEVVAATPTSLLISWDAPSRHIYYYRITYGETGGNSPVQEFTVPGSKSTATISGLKPGVDYTITVYAVTDLYSNSKPISINYRTS
B1 displayed a fold improvement over the binding of the monobodies from the primary screen with Pak1 [1] of 1000 fold. Moreover, in the assay with Pak1 [2], the IC50 stood at 1.5 nM.

The IC50 is the concentration that inhibits the measured activity by half. Higher therefore signals a need for much substance.

These data come from patent US20190055547A1.
